Data published in patent publication US20170022281A1 (AbbVie / Abbott, published 2017).
Residue numbers refer to the chain shown, from its start.

T1: rat PRLR ECD-Fc fusion protein (rat, UniProt P05710 20-229)
T1 construct: extracellular domain; not shown: Fc region (captured by goat anti-human Fc)
T1 sequence (looked up): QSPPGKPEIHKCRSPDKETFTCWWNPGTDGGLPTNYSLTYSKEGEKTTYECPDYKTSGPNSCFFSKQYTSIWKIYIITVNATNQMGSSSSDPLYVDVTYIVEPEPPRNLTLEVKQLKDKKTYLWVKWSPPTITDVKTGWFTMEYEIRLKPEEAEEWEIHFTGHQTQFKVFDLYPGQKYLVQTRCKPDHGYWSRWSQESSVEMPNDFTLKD

T2: mouse PRLR ECD-Fc fusion protein (mouse, UniProt Q08501 20-229)
T2 construct: extracellular domain; not shown: Fc region (captured by goat anti-human Fc)
T2 sequence (looked up): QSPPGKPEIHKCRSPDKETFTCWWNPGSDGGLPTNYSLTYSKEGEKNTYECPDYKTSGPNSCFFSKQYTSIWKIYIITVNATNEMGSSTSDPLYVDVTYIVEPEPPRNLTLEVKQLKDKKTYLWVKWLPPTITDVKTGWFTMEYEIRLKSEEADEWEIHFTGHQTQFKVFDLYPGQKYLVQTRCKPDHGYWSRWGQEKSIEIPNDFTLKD

T3: human PRLR on cells (human, UniProt P16471 25-622)
T3 construct: Endogenous on T47D cells, transfected in Baf3-hPRLR cells; also called hPRLR; T47D cells
T3 sequence: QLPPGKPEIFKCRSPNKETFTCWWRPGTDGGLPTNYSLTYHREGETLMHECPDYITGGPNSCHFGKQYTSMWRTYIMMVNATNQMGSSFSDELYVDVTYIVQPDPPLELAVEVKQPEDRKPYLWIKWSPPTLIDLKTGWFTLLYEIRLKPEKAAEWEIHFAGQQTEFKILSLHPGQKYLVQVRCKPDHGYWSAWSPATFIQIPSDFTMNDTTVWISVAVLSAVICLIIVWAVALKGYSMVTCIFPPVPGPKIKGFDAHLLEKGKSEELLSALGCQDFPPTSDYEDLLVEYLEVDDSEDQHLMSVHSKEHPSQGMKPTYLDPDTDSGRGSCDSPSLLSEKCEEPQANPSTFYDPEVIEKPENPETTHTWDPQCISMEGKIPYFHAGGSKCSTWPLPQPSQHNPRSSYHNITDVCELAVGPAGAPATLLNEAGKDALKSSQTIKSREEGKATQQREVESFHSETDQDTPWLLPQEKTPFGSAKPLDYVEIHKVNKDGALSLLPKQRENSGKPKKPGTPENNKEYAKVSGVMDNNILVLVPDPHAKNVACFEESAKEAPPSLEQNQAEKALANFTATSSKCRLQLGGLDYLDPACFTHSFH

T4: rat PRLR on Nb2-11 rat lymphoma cells (rat, UniProt P05710 20-610)
T4 construct: whole, on cells
T4 sequence (looked up): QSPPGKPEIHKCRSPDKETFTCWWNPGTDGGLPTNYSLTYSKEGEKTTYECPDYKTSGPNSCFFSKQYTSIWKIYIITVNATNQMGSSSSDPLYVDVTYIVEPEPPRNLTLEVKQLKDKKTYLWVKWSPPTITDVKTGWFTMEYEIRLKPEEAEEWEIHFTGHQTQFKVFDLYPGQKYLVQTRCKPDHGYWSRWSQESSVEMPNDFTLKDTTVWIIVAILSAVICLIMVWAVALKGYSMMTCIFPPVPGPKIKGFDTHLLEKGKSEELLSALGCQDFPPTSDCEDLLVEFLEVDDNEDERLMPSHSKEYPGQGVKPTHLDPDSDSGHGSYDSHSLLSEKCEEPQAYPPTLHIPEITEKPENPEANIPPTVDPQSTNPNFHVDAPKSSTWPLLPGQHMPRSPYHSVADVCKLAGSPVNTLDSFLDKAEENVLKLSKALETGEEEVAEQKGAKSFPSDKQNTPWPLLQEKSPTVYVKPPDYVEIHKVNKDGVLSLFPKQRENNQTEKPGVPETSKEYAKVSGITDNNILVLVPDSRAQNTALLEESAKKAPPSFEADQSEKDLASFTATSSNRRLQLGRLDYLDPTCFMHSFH

T5: mouse PRLR on Baf3-mPRLR cells (mouse, UniProt Q08501 20-608)
T5 construct: whole, on cells
T5 sequence (looked up): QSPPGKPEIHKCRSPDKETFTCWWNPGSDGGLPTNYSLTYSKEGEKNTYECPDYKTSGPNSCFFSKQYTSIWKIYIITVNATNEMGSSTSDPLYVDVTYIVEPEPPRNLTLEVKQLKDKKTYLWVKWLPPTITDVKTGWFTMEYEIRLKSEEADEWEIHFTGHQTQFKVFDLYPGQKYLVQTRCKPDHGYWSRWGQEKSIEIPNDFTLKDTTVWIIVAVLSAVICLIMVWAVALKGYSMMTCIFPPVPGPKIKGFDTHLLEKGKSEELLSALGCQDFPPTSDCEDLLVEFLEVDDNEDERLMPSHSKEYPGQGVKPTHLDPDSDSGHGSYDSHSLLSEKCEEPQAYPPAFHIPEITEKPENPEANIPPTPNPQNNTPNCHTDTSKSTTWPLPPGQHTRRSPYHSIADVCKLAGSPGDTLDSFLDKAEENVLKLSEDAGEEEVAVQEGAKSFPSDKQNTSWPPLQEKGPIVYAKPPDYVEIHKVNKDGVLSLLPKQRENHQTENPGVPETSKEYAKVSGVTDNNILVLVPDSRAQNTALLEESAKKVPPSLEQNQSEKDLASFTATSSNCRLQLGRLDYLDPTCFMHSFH

B1: Ab10 (antibody, V domains shown)
VH: EVQLHQSGPELVKPGASVKISCKASGYTFTDYNMHWMKQSHGKSLEWIGYFYPYNGGTGYNQEFKNKATLTVDISSSTAYMELRRLTSEDSAVYYCARGGWGIYYAMDYWGQGTSVTVSS
VL: DIQMTQSPASLSASVGETVTITCRASENIYSYLTWYQQKQGKSPQLLVYNAKTLAEGVPSRFSGSGSGTQFSLKINSLQPEDFGSYHCQHHSVTPLTFGAGTKLELK
notes: murine monoclonal, isotype G2a; also called murine Ab10
B2: Ab6 (antibody, V domains shown)
VH: QVQLQQPGAELVMPGSSVKLSCKASGYTFTTYWMHWVKQRPGQGLEWIGEIDPSDSYSNYNQKFKDKATLTVDKSSSTAYMQLSSLTSEDSAVYYCARNGGLGPAWFSYWGQGTLVTVSA
VL: DIVMTQSQKFMSTTVGDRVSITCKASQYVGTAVAWYQQKPGQSPKLLIYSASNRYTGVPDRFTDSGSGTDFTLTISNLQSEDLADYFCQQYSSYPWTFGGGTKLEIK
notes: murine monoclonal, isotype G1; also called murine Ab6
B3: LFA102 (antibody, human IgG1, kappa, V domains shown)
VH: EVQLVESGGGLVQPGGSLRLSCAVSGFTFSSYGMSWVRQAPGKRLEWVATVSSGGTYTYYPDSVKGRFTISRDNSKNTLYLQMNSLRAEDTAMYYCARHRGNYYATYYYAMDYWGQGTLVTVSS
VL: DIVLTQSPDSLAVSLGERATINCKASKSVSTSGYTYMHWYQQKPGQPPKLLIYLASNRESGVPDRFSGSGSGTDFTLTISPVQAEDVATYYCQHSGELPPSFGQGTKLEIKR
notes: humanized IgG1 kappa comparator (WO 2008022295)
B4: Ab5 (antibody, V domains shown)
VH: QVQLQQPGAELVRPGTSVKLSCKASGYTFTSFWMHWVKQRPGQGLEWIGVIDPSDTYTNYNQKFKGKATLTVDTSSSTAYMQLSSLTSEDSAVYYCARGDYSNWFTYWGQGTLVTVSA
VL: DVVMTQTPLSLPVSLGDQASISCRSSQRLVHSNGNTYLHWYLQKPGQSPKLLIYKVSNRFSGVPDRFSGSGSGTDFTLKISRVEAEDLGVYFCSQSTHVPWTFGGGTKLEIK
notes: murine monoclonal, isotype G2a; also called murine Ab5
B5: chAb5 (antibody, human IgG1, kappa, V domains shown)
VH: B4 VH
VL: DVVMTQTPLSLPVSLGDQASISCRSSQRLVHSNGNTYLHWYLQKPGQSPKLLIYKVSNRFSGVPDRFSGSGSGTDFTLKISRVEAEDLGVYFCSQSTHVPWTFGGGTKLEIKT
notes: chimeric, murine variable and human G1/kappa constant regions
B6: Ab7 (antibody, V domains shown)
VH: QVQLQQPGAELVMPGTSVKLSCKASGYTFTSYWIHWVKQRPGQGLEWIGEIDPSDSYTNYNQKFKGKATLTVDRSSSTAYMQLSSLTSEDSAVYYCGRSFFTNWFAYWGQGTLVTVSA
VL: B4 VL with R28S, S81N, W101F, G105S
notes: murine monoclonal, isotype G1; also called murine Ab7
B7: Ab13 (antibody, V domains shown)
VH: B4 VH with T56S, Y57H, D73N, Q82H
VL: B4 VL with L9F, R28S, G89E, V90L
notes: murine monoclonal, isotype G2a; also called murine Ab13
B8: Ab30 (antibody, human IgG1, kappa, V domains shown)
VH: EVQLVQSGAEVKKPGSSVKVSCKASGYTFTSFWMHWVRQAPGQGLEWIGVIDPSDTYTNYNQKFKGRATLTVDESSSTAYMELSSLRSEDTAVYYCARGDYSNWFTYWGQGTLVTVSS
VL: B5 VL with P12S, S14T, L15P, D17Q, Q18P, K50Q, L88V, L109V, T113R
notes: humanized from Ab5; G1; also called Ab2 HC.1a and Ab2 LC.1a
B9: chAb7 (antibody, human IgG1, kappa, V domains shown)
VH: B6 VH
VL: B5 VL with R28S, S81N, W101F, G105S
notes: as for B5
B10: chAb8 (antibody, human IgG1, kappa, V domains shown)
VH: EVQLQQSGPELVKPGASVKISCKASGYTFTDYNIHWVKQSHGKSLEWIGYIYPNNDGTGYNQKFKSKATLTVDNSSSTAYMEVRSLTSEDSAVYYCARGDGNYVGDMDYWGQGTSVTVSS
VL: DIQMTQSPASLSASVGETVTITCRASENIYSYLAWYQQKQGKPPQLLVYNAKTLAEGVPSRFSGGGSGTQFSLKINSLQPEDFGSYYCQHHYATPFTFGSGTKLEIKT
notes: as for B5

Tests used:
[1] = target: T1, rat PRLR ECD-Fc fusion protein; assay: ELISA on ECD
Summary of the method: (§1)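 PRLR was captured on blocked plates for 1 h, then incubated 1 h with serial antibody dilutions in PBS pH 7.4/0.05% Tween 20 containing 10% Superblock. HRP secondary and TMB gave signal read at 450 nm, and EC50 came from curve fitting.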

[2] = target: T2, mouse PRLR ECD-Fc fusion protein; assay: ELISA on ECD
Summary of the method: as §1

human PRLR on cells = target: T3, human PRLR on cells; assay: FACS T47D 10 ug/mL
[3] = target: T4, rat PRLR on Nb2-11 rat lymphoma cells; assay: FACS Nb2-11 20 ug/mL
Method: (§2) Nb2-11 and Baf3-xPRLR cells were resuspended in FACS buffer (PBS+1% FBS) at 2 millions cells/mL. Cells were added to round bottom 96-well plate (100 uL/well) and treated with testing PRLR antibodies for 1 hr at 4 C. Cells were then washed with FACS buffer twice and incubated with 2nd antibody conjugated to ALEXA488 (Invitrogen) for 1 hr at 4 C. After two washes in FACS buffer, cells were resuspended in 1% formaldehyde in PBS. Cells were analyzed using LSRII flowcytometer.

[4] = target: T5, mouse PRLR on Baf3-mPRLR cells; assay: FACS Baf3-mPRLR 10 ug/mL
Method: as §2

Row | Binder | EC50 [1] [pM] | EC50 [2] [pM] | FACS GeoMean-neg (human PRLR on cells) | FACS GeoMean-neg [3] | FACS GeoMean-neg [4]
1 | B1 | 234 | 1140 | 2720 | 16 | 49
2 | B2 |  |  | 1840 | 0 | 0
3 | B3 | 157 |  | 1640 | 98 | 4
4 | B4 | 80 | 98 | 1610 | 90 | 166
5 | B5 | 147 | 120 |  |  | 
6 | B6 | 135 | 143 | 2380 | 82 | 27
7 | B7 | 85 | 88 | 1500 | 60 | 143
8 | B8 | 423 | 198 |  |  | 
9 | B9 | 157 | 184 |  |  | 
10 | B10 | 305 | 1020 |  |  | 
